# In patent publication US20090069547A1, “STABILIZATION OF MAMMALIAN MEMBRANE PROTEINS BY SHORT SURFACTANT PEPTIDES” (Massachusetts Institute of Technology, priority 2007, published 2009):
# Read-outs that look alike come from different tables or passages of the source.
# Experiments:
# GPCR bovine rhodopsin [1] = target: T1, GPCR bovine rhodopsin (Bos taurus, UniProt P02699); experiment: Thermal stability of rhodopsin in peptide solution in the presence of surfactant (decay of A500); format: biochemical
# T1 construct: Bovine retinae rod outer segment membranes were prepared (40, 41) and urea-stripped (42); tissue J. A. Lawson (Lincoln, Nebr.); host or cells: bovine retinae, rod outer segments
# T1 sequence (P02699 whole entry): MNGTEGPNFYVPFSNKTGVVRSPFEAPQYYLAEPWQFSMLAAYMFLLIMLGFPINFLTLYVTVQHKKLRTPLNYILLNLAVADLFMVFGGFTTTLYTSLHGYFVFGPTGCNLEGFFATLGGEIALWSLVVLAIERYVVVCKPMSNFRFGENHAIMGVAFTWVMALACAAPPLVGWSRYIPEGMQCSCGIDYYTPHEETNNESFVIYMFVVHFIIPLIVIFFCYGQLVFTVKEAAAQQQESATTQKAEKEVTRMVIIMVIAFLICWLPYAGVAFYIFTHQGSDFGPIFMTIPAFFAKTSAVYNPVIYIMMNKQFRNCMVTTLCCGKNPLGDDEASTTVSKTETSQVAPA
# Procedure: Solubilization of Rhodopsin in Different Surfactants. Bovine retinae rod outer segment membranes were prepared (40, 41) and urea-stripped (42). Samples of the membranes containing 1.4 nmol of rhodopsin were solubilized in 0.5 ml of PBS containing 0.5 mM phenylmethylsulfonyl fluoride with 1% DM or 2% (/vol) OG. The suspensions were centrifuged (100,000×g for 15 min), and the supernatants were kept in the dark at 4° C.
# Thermal Stability Study of Rhodopsin in Peptide Solution in the Presence of the Surfactant. Rhodopsin solubilized (32-34) in PBS containing 2% (vol/vol) OG was added to the same volume of PBS containing 0, […], 5.0, or 7.5 mM A6D, 1.8% PEG, or 5.4 mM RAD8. In another experiment, rhodopsin solubilized in PBS containing 1% (19.8 mM) DM was added to the same volume of PBS containing 5.0 mM A6D or 0, 5.0, or 19.8 mM DM. A decrease in A500 was recorded every 5 min up to 110 min at 40° C. for the samples containing OG and at 40-55° C. for those containing DM (FIGS. 2 and 3). UV-visible absorption spectroscopy was performed with a Lambda 6 spectrophotometer (Perkin-Elmer, Wellesley, Mass.) equipped with a temperature regulated cuvette holder with a slit width of 2 nm, 480 nm/min scan speed, and a response time of 1 second. The A500 remaining at different time points was expressed as the percentage of absorbance present at the start of the experiment. The half-life of rhodopsin in each solution was calculated by using a single exponential curve fit. The plot obtained from the percentage of absorbance at different time points was fitted to a single exponential curve with two parameters (Eq. 1).
# The plot obtained from the A500 values at different time points was directly fitted to a single exponential curve with three parameters (Eq. 2) when the plot from the percentage of absorbance could not be fitted to Eq. 1.
# The half-life (t1/2) was calculated using Eq. 3.
# [2] = non-peptide surfactant, medium not stated; cited from earlier work
# [3] = system: photosystem I (PSI) protein complex; conditions: cited from earlier work; for Stabilization of the PSI complex (≈735-nm fluorescence maximum, words): surfactant added before drying the sample, emission at 77 K
# GPCR bovine rhodopsin [4] = target: T1, GPCR bovine rhodopsin; experiment: Thermal stability of rhodopsin in peptide solution in the absence of OG (decay of A500); format: biochemical; conditions: for Half-life of rhodopsin: control samples containing only OG, without A6D
# Procedure: Thermal Stability of Rhodopsin in Peptide Solution in the Absence of OG. Rhodopsin solubilized in PBS containing 2% (vol/vol) OG was added to the same volume of PBS containing 2.5 mM A6D. […] Then, 0.5 ml of the mixture was poured into the tube. The tube was covered with 10 kDa of cutoff membrane and dialyzed against 4.5 ml of PBS containing 1.25 mM A6D for 40 h in the dark at 4° C. A resultant sample decrease in A500 was recorded every 5 min for 120 min at 40° C. A decrease in A500 of the predialysis mixture containing 1% OG and 1.25 mM A6D was also monitored as a control (FIG. 4A).
# [5] = target: T2, delipidated bovine rhodopsin (Bos taurus, UniProt P02699); experiment: Thermal stability of delipidated rhodopsin in the absence of phospholipids (decay of A500); format: biochemical
# T2 construct: Bovine retinae rod outer segment membranes were prepared (40, 41) and urea-stripped (42); tissue J. A. Lawson (Lincoln, Nebr.); host or cells: bovine retinae, rod outer segments
# T2 sequence (P02699 whole entry): as above
# Procedure: Removal of Phospholipids from Rhodopsin. Samples of the membranes containing 4.7 nmol of rhodopsin were solubilized in 1,000 ul of PBS containing 2% (vol/vol) OG. The suspension was mixed with 250 ul (settled beads, concentration of 50%) of rhodopsin-1D4 Sepharose and rotated for 3 h. The 1D4 Sepharose beads were then packed into a minicolumn (7-mm inner diameter) and washed with PBS containing 1% OG by using 500 bed volumes (total of 62.5 ml). The rhodopsin was then eluted with 1.5 ml of PBS containing 1% OG and the C-terminal nanopeptide.
# Thermal Stability Study of Rhodopsin in Peptide Solution in the Absence of Phospholipids. The delipidated rhodopsin solution was added to the same volume of 1% OG in PBS containing 0, 3.75, or 7.5 mM A6D, or 1.8% PEG (FIG. 4B). In another experiment, the delipidated rhodopsin solutions were poured into tubes. Each tube was covered with 10 kDa of cutoff membrane and dialyzed against 4.5 ml of PBS or PBS containing 1.25 mM A6D or 1% OG (FIG. 4C). For all samples, a decrease in A500 was recorded every 5 min, up to 120 min at 40° C.
# phycobilisomes = experiment: Stabilization of phycobilisomes, room temperature fluorescent spectroscopy (666 nm); format: biochemical, Porphridium Cruentum; conditions: for 666 nm fluorescence intensity: phycobilisomes after buffer change to 0.4M PBS, excitation 540 nm, room temperature
# Procedure: Methods: Native phycobilisomes were isolated from Porphridium Cruentum, purified by Martek Biosciences and received in stabilizing buffer (0.75 M PBS, pH ˜7). Peptergents (ac-A6D and ac-A6K—NH2) were used as supplied (CPC Scientific) without further purification. Briefly, phycobilisomes (1 ng/mL) were mixed with peptergent-0.75M PBS solutions (0, 1, 2, 4 and 8 critical aggregation concentrations (CAC)). Phycobilisome-peptide solutions were dialyzed (3400 MWCO) against PBS solutions of various molarity (0.6-0.01M) for 18 h, in the dark. Room temperature fluorescent spectroscopy of these solutions was conducted using an excitation wavelength of 540 nm and emitted fluorescence (550-700 nm) were collected. UV-Vis spectra were obtained to confirm solution concentrations for all acquired fluorescent data.
# GPCR bovine rhodopsin [6] = target: T1, GPCR bovine rhodopsin; experiment: Thermal stability of rhodopsin in peptide solution in the presence of surfactant (decay of A500); format: biochemical; conditions: control solution (1.25 mM A6D/1% OG), 50° C.
# [7] = Critical aggregation concentration (CAC) of surfactants, dynamic light scattering; format: physicochemical
# Procedure: In a further embodiment, the surfactant peptide is added to the mammalian membrane protein at a concentration that is based on the CAC of the surfactant peptide. The CAC of surfactants can be determined experimentally using known dynamic light scattering methods. A minimal amount of sample can be used in this method. Each CAC determination takes a few hours, therefore it is possible to determine the CAC for a large number of peptide detergents in a few weeks. It is known that the lower the CAC, the more hydrophobic the detergents and the stronger the aggregation in water. The CAC for several peptide surfactants in water is shown below in Table 1.
# Similar to common surfactants, these peptide surfactants have defined critical aggregation concentrations (CACs) in the sub-millimolar to millimolar range, depending on the hydrophobicity of the tails and the ionic concentration. For example, in water, A6D has a CAC of ≈1.6 mM, and A6K has a CAC of 1.5 mM; however, in phosphate-based saline (PBS) (10 mM sodium phosphate/150 mM NaCl, pH 7.4), A6D has a CAC of 0.25 mM and A6K has a CAC of ≈0.23 mM. This difference is due the charge screening effect in accordance with the Derjaguin-Landau-Verwey-Overbeck (DVLO) theory, which postulates that a critical coagulation concentration of counterions is required to allow assembly and that this concentration will be inversely proportional to the valence of the counterion raised to the sixth power (28). The peptide surfactant supramolecular structure is similar to that of phospholipids; namely, the formation of a polar interface sequesters the hydrophobic tails from water.
# [8] = target: T3, glycerol 3-phosphate dehydrogenase (Escherichia coli, UniProt P13035); conditions: in solution, assayed through protein gel electrophoresis; cited from earlier work
# T3 sequence (P13035 1-501): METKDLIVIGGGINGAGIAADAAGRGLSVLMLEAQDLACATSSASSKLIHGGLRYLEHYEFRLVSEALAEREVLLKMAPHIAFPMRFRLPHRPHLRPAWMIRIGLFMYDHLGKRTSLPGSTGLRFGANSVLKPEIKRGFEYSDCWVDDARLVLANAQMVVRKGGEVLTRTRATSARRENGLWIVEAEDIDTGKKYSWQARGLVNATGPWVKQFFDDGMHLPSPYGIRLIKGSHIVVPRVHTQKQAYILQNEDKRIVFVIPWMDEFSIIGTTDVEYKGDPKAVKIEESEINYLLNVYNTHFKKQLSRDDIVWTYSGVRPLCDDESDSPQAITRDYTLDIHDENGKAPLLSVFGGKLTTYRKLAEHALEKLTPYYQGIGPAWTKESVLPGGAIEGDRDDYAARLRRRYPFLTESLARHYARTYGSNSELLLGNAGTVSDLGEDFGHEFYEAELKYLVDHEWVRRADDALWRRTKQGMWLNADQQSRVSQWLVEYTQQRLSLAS
# [9] = in phosphate-based saline (PBS) (10 mM sodium phosphate/150 mM NaCl, pH 7.4)
molecule,measurement,setting,value
"CCCCCCCCCCCCO[C@@H]1O[C@H](CO)[C@@H](O[C@H]2O[C@H](CO)[C@@H](O)[C@H](O)[C@H]2O)[C@H](O)[C@H]1O [DM, n-dodecyl-B-D-maltoside]",Half-life of rhodopsin,"GPCR bovine rhodopsin [1]; 12.3 mM DM, 50° C.",96 min
same,Half-life of rhodopsin,"GPCR bovine rhodopsin [1]; rhodopsin/phospholipid, 13.3 mM DM (89×CAC)",≈ 93 min
same,Half-life of rhodopsin,"GPCR bovine rhodopsin [1]; rhodopsin/phospholipids, 9.8 mM DM, 50° C.",102 min and ≈ 102 min
same,Half-life of rhodopsin,"GPCR bovine rhodopsin [1]; rhodopsin/phospholipids, 19.6 mM DM, 50° C.",96 min and ≈ 93 min
same,CAC,[2],≈ 0.15 mM
same,"Stabilization of the PSI complex (≈735-nm fluorescence maximum, words)",[3],did not stabilize
"CCCCCCCCO[C@@H]1O[C@H](CO)[C@@H](O)[C@H](O)[C@H]1O [OG, octyl-D-glucoside]",Half-life of rhodopsin,"GPCR bovine rhodopsin [1]; rhodopsin/phospholipids in 1% OG (PBS), 40° C.",71 min and ≈ 71 min
same,Half-life of rhodopsin,GPCR bovine rhodopsin [4]; 40° C.,≈ 101 min
same,Half-life of rhodopsin,GPCR bovine rhodopsin [4]; 50° C.,≈ 5 min
same,CAC,[2],≈ 5 mM
same,"Stabilization of the PSI complex (≈735-nm fluorescence maximum, words)",[3],did not stabilize
same,Stabilization effect on delipidated rhodopsin,"[5]; OG added to delipidated rhodopsin, 40° C.",did not have a significant stabilization effect
same,Half-life of rhodopsin,"[5]; delipidated rhodopsin dialyzed against 1% OG (control), 40° C.",27 min
same,Half-life of rhodopsin,"[5]; delipidated rhodopsin, 1% OG, 40° C. (A6D concentration series)",23 min
AAAAAAD [A6D],fold increase in stability compared with the stability in OG alone,"GPCR bovine rhodopsin [1]; 2.5 mM A6D/1% OG, rhodopsin/phospholipids, 40° C.",2.5 fold
same,fold increase in stability of rhodopsin,"GPCR bovine rhodopsin [1]; 3.75 mM A6D/1% OG, rhodopsin/lipid, 40° C.",~4 fold
same,Half-life of rhodopsin,"GPCR bovine rhodopsin [1]; rhodopsin/lipid, 1.25 mM A6D/1% OG, 40° C.",101 min and ≈ 101 min
same,Half-life of rhodopsin,"GPCR bovine rhodopsin [1]; rhodopsin/lipid, 3.75 mM A6D/1% OG, 40° C.",277 min and ≈ 277 min
same,Half-life of rhodopsin,"GPCR bovine rhodopsin [1]; rhodopsin/phospholipids, 2.5 mM A6D/1% OG, 40° C.",173 min and ≈ 173 min
same,Thermal stability of rhodopsin,"GPCR bovine rhodopsin [1]; rhodopsin/phospholipids/DM (9.8 mM) plus 2.5 mM A6D, 50° C.",extremely stable with little decay
same,Thermal stability of rhodopsin,"GPCR bovine rhodopsin [4]; rhodopsin/lipid/A6D complex without OG, 2.5 mM A6D, 40° C., 50° C., and 55° C.",very stable at all tested temperatures with little denaturation
same,Concentration normalized signal strength,"phycobilisomes; 666 nm, versus stabilized control",very similar to the stabilized control
same,666 nm fluorescence intensity,phycobilisomes,1.3 ×10^5 cps
same,Half-life of rhodopsin,GPCR bovine rhodopsin [6],< 5 min
same,CAC,[7]; [9],0.25 mM
same,CAC,[7]; in water,~1.6 mM
same,Half-life of rhodopsin,"[5]; delipidated rhodopsin, 1.25 mM A6D alone, no OG, no phospholipids, 40° C.",122 min and ≈ 122 min
same,fold increase in stability compared with the stability in OG alone,"[5]; delipidated rhodopsin, 1.87 mM A6D in OG, 40° C.",2.8 fold
same,Half-life of rhodopsin,"[5]; delipidated rhodopsin, 1.87 mM A6D/1% OG, 40° C.",76 min and ≈ 76 min
same,fold increase in stability compared with the stability in OG alone,"[5]; delipidated rhodopsin, 3.75 mM A6D in OG, 40° C.",4.7 fold
same,Half-life of rhodopsin,"[5]; delipidated rhodopsin, 3.75 mM A6D/1% OG, 40° C.",128 min and ≈ 128 min
same,fold increase in stability,"[5]; delipidated rhodopsin, A6D alone vs absence of both phospholipids and OG, 40° C.",2.6 fold
AAAAAAK [A6K],666 nm fluorescence intensity,phycobilisomes,0.7 ×10^5 cps
same,CAC,[7]; [9],≈ 0.23 mM
same,CAC,[7]; in water,~1.5 mM
same,Time the PSI complex is stable in a dried form,"[3]; room temperature, in the presence of the peptide surfactant",at least 3 weeks
same,"Stabilization of the PSI complex (≈735-nm fluorescence maximum, words)",[3],significantly stabilized the PSI complex
"Ac-n-RADARADA-c-NH2 (Ac-RADARADA-NH2) [RAD8, octapeptide similar in size to A6D without significant surfactant properties]",Half-life of rhodopsin,"GPCR bovine rhodopsin [1]; rhodopsin/phospholipid, 2.8 mM RAD8/1% OG, 40° C.",99 min and ≈ 99 min
VVVVVVD [V6D],Solubilized membrane protein function,[8],retaining its functional enzymatic activities
same,CAC,[7]; in water,~0.7 mM
same,"Stabilization of the PSI complex (≈735-nm fluorescence maximum, words)",[3],"also stabilized the complex, but to a lesser extent"
VVVVVVDD [V6D2],CAC,[7]; in water,1.1 mM
